Results: patent US20240294895A1, “ENZYMATIC COMPOSITIONS FOR CARBOHYDRATE ANTIGEN CLEAVAGE ON DONOR ORGANS, METHODS AND USES ASSOCIATED THEREWITH” (THE UNIVERSITY OF BRITISH COLUMBIA, priority 2018, published 2024)

Tests used:
[1] = molecular target: Flavonifractor plautii GalNAcDeacetylase (FpGalNAcDeAc), SEQ ID NO: 2, 4, 5 (Flavonifractor plautii, UniProt P0DTR4); settings: 100 μM EDTA; 50 μM A antigen subtype 1penta-MU, pH 7.4, 37° C.
Description: FpGalNAcDeacetylase was tested against different potential inhibitors in 96-well plate format as a coupled assay. Reaction was performed in 100 μL scale at 37° C. with 50 μM A antigen subtype 1penta-MU and 5 μg/mL FpGalNAcDeacetylase in 100 mM NaH2PO4 PH 7.4 with 10 μg/mL FpGalactosaminidase, 50 μg/mL SpHex, 50 μg/mL AfcA, 50 μg/mL BgaC. As inhibitors EDTA (1, 10, 100 μM), Marimastat (1, 10, 100, 1000 μM), DMSO (2%, 4%), Protease Inhibitor Cocktail EDTA-free (Pierce™) (1×, 2× and 4×) were tested. The Fluorescence (365/435 nm) was monitored continuously for 1 hours using a Synergy H1™ plate reader (BioTek™).

[2] = molecular target: T1, Flavonifractor plautii Galactosaminidase (FpGalNase), full length, SEQ ID NO: 7, 9, 10 (Flavonifractor plautii, UniProt P0DTR5); experiment: Kinetic parameters of FpGalNase full length (MU or pNP release); type: biochemical; settings: versus corresponding GalN-antigen
T1 sequence (P0DTR5 with tags, fused parts or gaps): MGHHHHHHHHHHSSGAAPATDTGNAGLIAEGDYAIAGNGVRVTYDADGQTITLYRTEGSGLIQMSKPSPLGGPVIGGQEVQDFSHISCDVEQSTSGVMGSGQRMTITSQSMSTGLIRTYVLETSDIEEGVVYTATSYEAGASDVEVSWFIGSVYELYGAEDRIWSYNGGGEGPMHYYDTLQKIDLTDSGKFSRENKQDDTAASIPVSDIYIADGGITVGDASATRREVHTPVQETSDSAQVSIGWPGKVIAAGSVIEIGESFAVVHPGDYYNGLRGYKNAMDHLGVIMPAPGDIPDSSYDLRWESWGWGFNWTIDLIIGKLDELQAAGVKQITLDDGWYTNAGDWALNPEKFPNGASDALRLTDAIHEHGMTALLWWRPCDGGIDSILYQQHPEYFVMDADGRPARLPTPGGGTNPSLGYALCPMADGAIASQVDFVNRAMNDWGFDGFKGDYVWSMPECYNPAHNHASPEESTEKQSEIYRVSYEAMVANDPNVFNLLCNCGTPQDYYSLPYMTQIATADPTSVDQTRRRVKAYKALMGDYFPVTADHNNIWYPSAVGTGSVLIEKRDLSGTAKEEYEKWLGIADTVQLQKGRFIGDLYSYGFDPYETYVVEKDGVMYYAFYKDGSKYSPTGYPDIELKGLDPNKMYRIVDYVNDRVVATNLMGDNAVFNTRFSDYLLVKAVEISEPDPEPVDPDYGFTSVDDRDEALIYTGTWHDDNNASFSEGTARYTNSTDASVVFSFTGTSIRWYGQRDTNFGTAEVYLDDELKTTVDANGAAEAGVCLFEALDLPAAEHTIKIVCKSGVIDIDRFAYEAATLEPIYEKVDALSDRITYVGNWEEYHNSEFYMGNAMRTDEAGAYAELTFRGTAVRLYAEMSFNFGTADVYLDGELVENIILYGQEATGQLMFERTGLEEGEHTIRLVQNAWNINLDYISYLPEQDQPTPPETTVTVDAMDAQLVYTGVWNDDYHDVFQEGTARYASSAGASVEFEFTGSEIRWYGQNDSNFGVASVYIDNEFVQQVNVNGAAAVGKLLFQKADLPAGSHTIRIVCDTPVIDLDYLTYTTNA
Description: (§1) All kinetic assays utilizing 4-methylumbelliferone as leaving group were performed through measurement of fluorescence. To avoid measurement errors based on the inner filter effect (Palmier 2007) standard curves were used to validate the linear range of the fluorophore.
(§2) Michaelis-Menten parameter was determined for GalN antigen subtype 1penta-MU and A antigen subtype 1penta-MU in 100 mM NaH2PO4, pH 7.4 at 37° C. Reaction was performed in 100 μl with 3.4 nM FpGalactosaminidase (5.31 nM FpGalNase_truncA) and 0.1 mg/mL SpHex, AfcA, 0.2 mg/mL BgaC and varying concentrations of substrate (5 μM-2 mM). The reactions were run as a series of four with controls (no FpGalactosaminidase) as duplicates. The fluorescence signal (365/435 nm) resulting from MU release by hydrolysis was monitored by Synergy H1™ plate reader [BioTek™] and converted to concentration using MU standard concentration curves determined under identical reaction conditions. Initial rates (μM/s) were determined and plotted in Grafit 7.0™ to determine the kinetic parameters.
kcat/KM parameter was determined for GalN antigen subtype 1/2/4tetra-MU and B antigen subtype 1tetra-MU at pH 7.4 and 37° C. […] Initial rates (μM/s) were determined and plotted in Grafit 7.0™ to determine the kcat/KM (s^−1*mM^−1) parameters. […]

[3] = substrate: CC(=O)N[C@H]1[C@H](Oc2ccc3c(C)cc(=O)oc3c2)O[C@H](CO)[C@@H](O)[C@@H]1O[C@@H]1O[C@H](CO)[C@H](O)[C@H](O[C@H]2O[C@H](CO)[C@H](O)[C@H](O)[C@H]2N)[C@H]1O[C@@H]1O[C@@H](C)[C@@H](O)[C@@H](O)[C@@H]1O; experiment: as above; type: biochemical, Flavonifractor plautii; settings: other: 100 mM NaH2PO4, pH 7.4, 37° C.
Description: as §1, §2
(§3) kcat/KM parameter was determined for GalN antigen subtype 1/2/4tetra-MU and B antigen subtype 1tetra-MU at pH 7.4 and 37° C. Reactions (total volume of 100 μL) were performed in black 96-plate wells and as coupled assays in 100 mM NaH2 PO4 (pH 7.4) with 8.63 nM FpGalactosaminidase, 0.1 mg/mL SpHex, BgaC (BgaA for Subtype 2), AfcA, varying concentrations of substrate (25 μM, 20 μM, 15 μM, 10 μM, 7.5 μM, 5 μM). The reactions were run as a series of four with controls (no FpGalactosaminidase) as duplicates. The fluorescence signal (365/435 nm) resulting from MU release by hydrolysis was monitored by Synergy H1™ plate reader [BioTek™] and converted to concentration using MU standard concentration curves determined under identical reaction conditions. Initial rates (μM/s) were determined and plotted in Grafit 7.0™ to determine the kcat/KM (s^−1*mM^−1) parameters.
(§4) Michaelis-Menten parameters were determined for GalN-α-pNP in clear 96-plate at 37° C. with 863.2 nM FpGalactosaminidase (in 100 mM NaH2PO4, pH 7.4) or 369.9 nM FpGH4 (in 50 mM Tris/HCl, pH 7.4, 100 μM NAD^+, 1 mM MnCl2) with varying concentrations of substrate (10 μM-5 mM) in a volume of 100 μl. The reactions were run as a series of three with two controls (no enzyme). The absorption (at 405 nm) resulting from pNP release by hydrolysis was monitored by Synergy H1™ plate reader [BioTek™] and converted to concentration using p-nitrophenol standard concentration curves determined under identical reaction conditions. Initial rates (μM/s) were determined and plotted in Grafit 7.0™ to determine the kinetic parameters.

[4] = substrate: CC(=O)N[C@H]1[C@H](Oc2ccc3c(C)cc(=O)oc3c2)O[C@H](CO)[C@@H](O)[C@@H]1O[C@@H]1O[C@H](CO)[C@H](O)[C@H](O[C@H]2O[C@H](CO)[C@H](O)[C@H](O)[C@H]2O)[C@H]1O[C@@H]1O[C@@H](C)[C@@H](O)[C@@H](O)[C@@H]1O; experiment: as above; type: biochemical, Flavonifractor plautii; settings: other: 100 mM NaH2PO4, pH 7.4, 37° C.
Description: as §1, §2, §3, §4

[5] = substrate: CC(=O)N[C@H]1[C@H](Oc2ccc3c(C)cc(=O)oc3c2)O[C@H](CO)[C@H](O)[C@@H]1O[C@@H]1O[C@H](CO)[C@H](O)[C@H](O[C@H]2O[C@H](CO)[C@H](O)[C@H](O)[C@H]2N)[C@H]1O[C@@H]1O[C@@H](C)[C@@H](O)[C@@H](O)[C@@H]1O; experiment: as above; type: biochemical, Flavonifractor plautii; settings: other: 100 mM NaH2PO4, pH 7.4, 37° C.
Description: as §1, §2, §3, §4

[6] = substrate: N[C@H]1[C@@H](Oc2ccc([N+](=O)[O-])cc2)O[C@H](CO)[C@H](O)[C@@H]1O; experiment: as above; type: biochemical, Flavonifractor plautii; settings: other: 100 mM NaH2PO4, pH 7.4, 37° C.
Description: as §1, §2, §3, §4

[7] = substrate: CC(=O)N[C@H]1[C@H](Oc2ccc3c(C)cc(=O)oc3c2)O[C@H](CO)[C@@H](O[C@@H]2O[C@H](CO)[C@H](O)[C@H](O[C@H]3O[C@H](CO)[C@H](O)[C@H](O)[C@H]3N)[C@H]2O[C@@H]2O[C@@H](C)[C@@H](O)[C@@H](O)[C@@H]2O)[C@@H]1O; experiment: as above; type: biochemical, Flavonifractor plautii; settings: other: 100 mM NaH2PO4, pH 7.4, 37° C.
Description: as §1, §2, §3, §4

[8] = substrate: CC(=O)N[C@H]1[C@H](O[C@H]2[C@@H](O)[C@@H](CO)O[C@@H](Oc3ccc4c(C)cc(=O)oc4c3)[C@@H]2O)O[C@H](CO)[C@@H](O)[C@@H]1O[C@@H]1O[C@H](CO)[C@H](O)[C@H](O[C@H]2O[C@H](CO)[C@H](O)[C@H](O)[C@H]2N)[C@H]1O[C@@H]1O[C@@H](C)[C@@H](O)[C@@H](O)[C@@H]1O; experiment: as above; type: biochemical, Flavonifractor plautii; settings: other: 100 mM NaH2PO4, pH 7.4, 37° C.
Description: as §1, §2, §3, §4

Chain of Flavonifractor plautii GalNAcDeacetylase (FpGalNAcDeAc), SEQ ID NO: 2, 4, 5 (P0DTR4 13-772, looked up, natural form): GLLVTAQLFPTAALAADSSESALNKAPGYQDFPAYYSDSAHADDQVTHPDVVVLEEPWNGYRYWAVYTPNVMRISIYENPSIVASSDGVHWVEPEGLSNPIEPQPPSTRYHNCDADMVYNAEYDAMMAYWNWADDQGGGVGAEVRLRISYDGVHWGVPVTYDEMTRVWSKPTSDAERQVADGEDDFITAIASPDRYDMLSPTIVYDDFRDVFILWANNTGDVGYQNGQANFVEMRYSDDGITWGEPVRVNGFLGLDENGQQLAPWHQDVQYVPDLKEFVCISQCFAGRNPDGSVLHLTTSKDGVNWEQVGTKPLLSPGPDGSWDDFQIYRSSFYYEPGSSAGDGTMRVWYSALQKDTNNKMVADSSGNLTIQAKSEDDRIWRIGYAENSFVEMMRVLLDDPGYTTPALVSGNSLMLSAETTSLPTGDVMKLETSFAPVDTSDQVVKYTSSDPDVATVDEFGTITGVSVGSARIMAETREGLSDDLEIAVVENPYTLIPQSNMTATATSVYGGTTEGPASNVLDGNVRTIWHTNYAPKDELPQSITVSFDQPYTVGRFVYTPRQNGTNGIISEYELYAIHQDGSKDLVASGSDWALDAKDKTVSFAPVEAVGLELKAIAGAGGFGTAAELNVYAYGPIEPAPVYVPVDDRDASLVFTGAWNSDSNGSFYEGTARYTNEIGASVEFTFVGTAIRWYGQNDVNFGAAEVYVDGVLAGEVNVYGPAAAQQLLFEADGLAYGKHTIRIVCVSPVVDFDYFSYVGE

**Q.** For `O=C(O)CN(CCN(CC(=O)O)CC(=O)O)CC(=O)O` [EDTA], which “effect of treatment on enzyme activity” value [1] is on record?
**A.** largely obliterated the enzyme activity

**Q.** For `CC(=O)N[C@H]1[C@H](Oc2ccc3c(C)cc(=O)oc3c2)O[C@H](CO)[C@@H](O)[C@@H]1O[C@@H]1O[C@H](CO)[C@H](O)[C@H](O[C@H]2O[C@H](CO)[C@H](O)[C@H](O)[C@H]2O)[C@H]1O[C@@H]1O[C@@H](C)[C@@H](O)[C@@H](O)[C@@H]1O` [B antigen Type1tetra-MU], which “kcat/KM for cleavage of B-antigen, times lower than for the corresponding GalN-antigen” value [2] is on record?
**A.** over 2000 times lower

B1: Flavonifractor plautii Galactosaminidase (FpGalNase), full length, SEQ ID NO: 7, 9, 10 (Flavonifractor plautii) (protein)
chain: MGHHHHHHHHHHSSGAAPATDTGNAGLIAEGDYAIAGNGVRVTYDADGQTITLYRTEGSGLIQMSKPSPLGGPVIGGQEVQDFSHISCDVEQSTSGVMGSGQRMTITSQSMSTGLIRTYVLETSDIEEGVVYTATSYEAGASDVEVSWFIGSVYELYGAEDRIWSYNGGGEGPMHYYDTLQKIDLTDSGKFSRENKQDDTAASIPVSDIYIADGGITVGDASATRREVHTPVQETSDSAQVSIGWPGKVIAAGSVIEIGESFAVVHPGDYYNGLRGYKNAMDHLGVIMPAPGDIPDSSYDLRWESWGWGFNWTIDLIIGKLDELQAAGVKQITLDDGWYTNAGDWALNPEKFPNGASDALRLTDAIHEHGMTALLWWRPCDGGIDSILYQQHPEYFVMDADGRPARLPTPGGGTNPSLGYALCPMADGAIASQVDFVNRAMNDWGFDGFKGDYVWSMPECYNPAHNHASPEESTEKQSEIYRVSYEAMVANDPNVFNLLCNCGTPQDYYSLPYMTQIATADPTSVDQTRRRVKAYKALMGDYFPVTADHNNIWYPSAVGTGSVLIEKRDLSGTAKEEYEKWLGIADTVQLQKGRFIGDLYSYGFDPYETYVVEKDGVMYYAFYKDGSKYSPTGYPDIELKGLDPNKMYRIVDYVNDRVVATNLMGDNAVFNTRFSDYLLVKAVEISEPDPEPVDPDYGFTSVDDRDEALIYTGTWHDDNNASFSEGTARYTNSTDASVVFSFTGTSIRWYGQRDTNFGTAEVYLDDELKTTVDANGAAEAGVCLFEALDLPAAEHTIKIVCKSGVIDIDRFAYEAATLEPIYEKVDALSDRITYVGNWEEYHNSEFYMGNAMRTDEAGAYAELTFRGTAVRLYAEMSFNFGTADVYLDGELVENIILYGQEATGQLMFERTGLEEGEHTIRLVQNAWNINLDYISYLPEQDQPTPPETTVTVDAMDAQLVYTGVWNDDYHDVFQEGTARYASSAGASVEFEFTGSEIRWYGQNDSNFGVASVYIDNEFVQQVNVNGAAAVGKLLFQKADLPAGSHTIRIVCDTPVIDLDYLTYTTNA
**Q.** What does the source list for B1?
**A.** kcat/Km [3]: 45700 ± 3570 M⁻¹ s⁻¹; kcat/Km [4]: 20 M⁻¹ s⁻¹; kcat/Km [5]: 30050 ± 2330 M⁻¹ s⁻¹; Km [6]: 700 ± 151 µM; kcat [6]: 0.029 s⁻¹; kcat/Km [6]: 40 M⁻¹ s⁻¹; kcat/Km [7]: 47270 ± 7490 M⁻¹ s⁻¹; Km [8]: 64.5 ± 7.6 µM; kcat [8]: 2.35 s⁻¹; kcat/Km [8]: 36480 M⁻¹ s⁻¹
